Data on one molecule can be found in US20150239980A1 (NEOTOPE BOSCIENCES, published 2015).

The test has as its target T1, recombinant human laminin 511 (Biolamina) (human, UniProt O15230 36-3695; P07942 22-1786; P11047 34-1609).
T1 construct: negative control; also called laminin 10 (α5β1γ1)
The test can be described thus: flow cytometry, mouse MCAM CHO cells, pan-laminin antibody. Background: In flow cytometry, cells or beads pass a laser one at a time.

B1: mouse MCAM expressed on transfected CHO cells (receptor, UniProt Q8R2Y2 24-648, looked up)
chain: VPGEEKQPVPTPDLVEAEVGSTALLKCGPSRASGNFSQVDWFLIHKERQILIFRVHQGKGQREPGEYEHRLSLQDSVATLALSHVTPHDERMFLCKSKRPRLQDHYVELQVFKAPEEPTIQANVVGIHVDRQELREVATCVGRNGYPIPQVLWYKNSLPLQEEENRVHIQSSQIVESSGLYTLKSVLSARLVKEDKDAQFYCELSYRLPSGNHMKESKEVTVPVFYPAEKVWVEVEPVGLLKEGDHVTIRCLTDGNPQPHFTINKKDPSTGEMEEESTDENGLLSLEPAEKHHSGLYQCQSLDLETTITLSSDPLELLVNYVSDVQVNPTAPEVQEGESLTLTCEAESNQDLEFEWLRDKTGQLLGKGPVLQLNNVRREAGGRYLCMASVPRVPGLNRTQLVSVGIFGSPWMALKERKVWVQENAVLNLSCEASGHPQPTISWNVNGSATEWNPDPQTVVSTLNVLVTPELLETGAECTASNSLGSNTTTIVLKLVTLTTLIPDSSQTTGLSTLTVSPHTRANSTSTEKKLPQPESKGVVIVAVIVCTLVLAVLGAALYFFYKKGKLPCGRSGKQEITLPPTRKSEFVVEVKSDKLPEEMALLQGSNGDKRAPGDQGEKYIDLRH
notes: whole, on cells; also called murine MCAM
For the molecule B1, the binding result was “no binding (tested: 10 µg/ml)”.
